Laboratory results taken from patent US20240301385, “DNA MODIFYING ENZYMES AND ACTIVE FRAGMENTS AND VARIANTS THEREOF AND METHODS OF USE” (LIFEEDIT THERAPEUTICS, INC., published 2024).

T1: APG00868.1-L16-nAPG07433.1 (truncated deaminase) (synthetic)
T1 chain: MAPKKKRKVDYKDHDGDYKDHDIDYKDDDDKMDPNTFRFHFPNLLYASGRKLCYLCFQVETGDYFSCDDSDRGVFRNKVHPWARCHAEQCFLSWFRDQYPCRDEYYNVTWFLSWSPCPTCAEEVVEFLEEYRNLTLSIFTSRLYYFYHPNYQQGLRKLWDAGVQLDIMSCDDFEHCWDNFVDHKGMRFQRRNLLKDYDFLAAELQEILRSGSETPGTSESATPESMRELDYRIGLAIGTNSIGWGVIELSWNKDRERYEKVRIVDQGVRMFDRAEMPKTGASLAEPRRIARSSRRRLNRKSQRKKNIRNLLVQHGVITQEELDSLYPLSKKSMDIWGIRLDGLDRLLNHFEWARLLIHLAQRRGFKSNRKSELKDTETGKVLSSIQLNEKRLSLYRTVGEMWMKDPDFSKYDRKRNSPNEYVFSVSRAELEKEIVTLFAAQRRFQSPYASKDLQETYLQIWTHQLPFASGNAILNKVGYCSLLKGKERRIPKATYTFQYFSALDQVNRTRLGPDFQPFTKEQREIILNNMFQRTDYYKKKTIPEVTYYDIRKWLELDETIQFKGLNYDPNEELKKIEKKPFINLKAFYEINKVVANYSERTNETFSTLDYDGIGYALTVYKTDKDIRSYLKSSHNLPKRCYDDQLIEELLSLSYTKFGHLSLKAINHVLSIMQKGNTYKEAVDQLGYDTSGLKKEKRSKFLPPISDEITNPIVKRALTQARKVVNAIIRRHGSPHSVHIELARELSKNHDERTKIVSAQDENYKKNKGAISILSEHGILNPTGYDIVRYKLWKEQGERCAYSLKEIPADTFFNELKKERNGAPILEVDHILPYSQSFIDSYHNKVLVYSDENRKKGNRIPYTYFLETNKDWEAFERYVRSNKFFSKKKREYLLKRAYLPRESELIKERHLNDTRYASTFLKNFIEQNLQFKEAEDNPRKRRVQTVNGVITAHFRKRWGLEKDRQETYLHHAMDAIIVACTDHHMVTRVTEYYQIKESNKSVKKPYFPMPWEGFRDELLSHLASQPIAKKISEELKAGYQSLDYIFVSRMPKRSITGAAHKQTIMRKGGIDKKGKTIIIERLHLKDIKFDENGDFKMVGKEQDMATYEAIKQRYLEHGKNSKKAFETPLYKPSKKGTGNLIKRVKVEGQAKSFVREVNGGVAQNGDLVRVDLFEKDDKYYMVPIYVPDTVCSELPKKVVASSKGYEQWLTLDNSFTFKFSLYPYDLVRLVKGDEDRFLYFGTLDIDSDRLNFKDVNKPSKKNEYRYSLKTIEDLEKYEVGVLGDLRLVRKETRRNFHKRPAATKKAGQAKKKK

B1: SGN001101 sgRNA ; SGN001101 target (ssRNA ; dsDNA)
RNA: AUAUUUUCUUUAAUGGUGCCAGGCAGUCAUAGUUCCAUUAAAGCCAAAAGUGGCUUUGAUGUUUCUAUGAUAAGGGUUUCGACCCGUGGCGUCGGGGAUCGCCUGCCCAUUGAAAUGGGCUUCUCCCCAU
DNA 1: ATATTTTCTTTAATGGTGCCAGGCA
DNA 2: TGCCTGGCACCATTAAAGAAAATAT
B2: SGN000169 sgRNA ; SGN000169 target (ssRNA ; dsDNA)
RNA: CACAUCUCGAGCAAGACGUUGUCAUAGUUCCAUUAAAGCCAAAAGUGGCUUUGAUGUUUCUAUGAUAAGGGUUUCGACCCGUGGCGUCGGGGAUCGCCUGCCCAUUGAAAUGGGCUUCUCCCCAUUUAUU
DNA 1: CACATCTCGAGCAAGACGTT
DNA 2: AACGTCTTGCTCGAGATGTG
B3: SGN000929 sgRNA ; SGN000929 target (ssRNA ; dsDNA)
RNA: AUCUGGAGGGAACUUACAGCAUAUGGUCAUAGUUCCAUGAAAGCCAAAAGUGGCUUUGAUGUUUCUAUGAUAAGGGUUUCGGCCCGUGGCGUCGGGGAUCGCCUGCCCAUUCCGAUGGGCUUCUCCCCAUUUAUU
DNA 1: ATCTGGAGGGAACTTACAGCATATG
DNA 2: CATATGCTGTAAGTTCCCTCCAGAT

Target: T1, APG00868.1-L16-nAPG07433.1 (truncated …)
Test: cell_activity; HEK293FT; PAM SEQ 152
Conditions: tags: SV40 NLS, 3xFLAG N-term; nucleoplasmin NLS C-term
Protocol: 500 ng of plasmid comprising an expression cassette comprising a coding sequence for each fusion protein shown in Table 3 and 500 ng of plasmid comprising an expression cassette encoding an sgRNA shown in Table 4 were co-transfected into HEK293FT cells at 75-90% confluency in 24-well plates using Lipofectamine 2000 reagent (Life Technologies). Cells were then incubated at […] for 72 h. Following incubation, genomic DNA was then extracted using NucleoSpin 96 Tissue (Macherey-Nagel) following the manufacturer's protocol. The genomic region flanking the targeted genomic site was PCR amplified using the primers in Table 4 and products were purified using ZR-96 DNA Clean and Concentrator (Zymo Research) following the manufacturer's protocol. The purified PCR products were then sent for Next Generation Sequencing on Illumina MiSeq (2×250). Results were analyzed for INDEL formation or introduction of % specific cytosine mutations.
The position of each nucleotide in the target sequence was determined. “C17” indicates, for example, a cytosine at position 17 of the target sequence. The position of each nucleotide in the target sequence was determined by numbering the first nucleotide in the target sequence closest to the PAM as position 1, and the position number increases in the 3′ direction away from the PAM sequence.

Binder	activity [% mutated reads]
B1	20.4
B2	22.4
B3	14.6
